Data published in US20080274976A1 (UNIVERSITY OF UTAH RESEARCH FOUNDATION, published 2008).
Values joined by “and” are separate entries in the source; they are usually repeats but may differ in a detail not shown here. Equal entries are not always repeated.

What was measured:
[1] = molecular target: κM-conotoxin RIIIK (Conus radiatus); test: voltage clamp of channels expressed in Xenopus oocytes
[2] = molecular target: κM-conotoxin RIIIK (Conus radiatus)

B1: Shaker K+ channel, wild type (other)
chain: MAAVAGLYGLGEDRQHRKKQQQQQQHQKEQLEQKEEQKKIAERKLQLREQQLQRNSLDGYGSLPKLSSQDEEGGAGHGFGGGPQHFEPIPHDHDFCERVVINVSGLRFETQLRTLNQFPDTLLGDPARRLRYFDPLRNEYFFDRSRPSFDAILYYYQSGGRLRRPVNVPLDVFSEEIKFYELGDQAINKFREDEGFIKEEERPLPDNEKQRKVWLLFEYPESSQAARVVAIISVFVILLSIVIFCLETLPEFKHYKVFNTTTNGTKIEEDEVPDITDPFFLIETLCIIWFTFELTVRFLACPNKLNFCRDVMNVIDIIAIIPYFITLATVVAEEEDTLNLPKAPVSPQDKSSNQAMSLAILRVIRLVRVFRIFKLSRHSKGLQILGRTLKASMRELGLLIFFLFIGVVLFSSAVYFAEAGSENSFFKSIPDAFWWAVVTMTTVGYGDMTPVGVWGKIVGSLCAIAGVLTIALPVPVIVSNFNYFYHRETDQEEMQSQNFNHVTSCPYLPGTLGQHMKKSSLSESSSDMMDLDDGVESTPGLTETHPGRSAVAPFLGAQQQQQQPVASSLSMSIDKQLQHPLQQLTQTQLYQQQQQQQQQQQNGFKQQQQQTQQQLQQQQSHTINASAAAATSGSGSSGLTMRHNNALAVSIETDV
notes: whole, on cells
**Q.** Does B1 bind [1]?
**A.** Result: binds

B2: Shaker-Δ6-46 K+ channel (other)
chain: MAAVALREQQLQRNSLDGYGSLPKLSSQDEEGGAGHGFGGGPQHFEPIPHDHDFCERVVINVSGLRFETQLRTLNQFPDTLLGDPARRLRYFDPLRNEYFFDRSRPSFDAILYYYQSGGRLRRPVNVPLDVFSEEIKFYELGDQAINKFREDEGFIKEEERPLPDNEKQRKVWLLFEYPESSQAARVVAIISVFVILLSIVIFCLETLPEFKHYKVFNTTTNGTKIEEDEVPDITDPFFLIETLCIIWFTFELTVRFLACPNKLNFCRDVMNVIDIIAIIPYFITLATVVAEEEDTLNLPKAPVSPQDKSSNQAMSLAILRVIRLVRVFRIFKLSRHSKGLQILGRTLKASMRELGLLIFFLFIGVVLFSSAVYFAEAGSENSFFKSIPDAFWWAVVTMTTVGYGDMTPVGVWGKIVGSLCAIAGVLTIALPVPVIVSNFNYFYHRETDQEEMQSQNFNHVTSCPYLPGTLGQHMKKSSLSESSSDMMDLDDGVESTPGLTETHPGRSAVAPFLGAQQQQQQPVASSLSMSIDKQLQHPLQQLTQTQLYQQQQQQQQQQQNGFKQQQQQTQQQLQQQQSHTINASAAAATSGSGSSGLTMRHNNALAVSIETDV
**Q.** For B2, which Kd [2] is on record?
**A.** The Kd was 3330 nM and 1260 nM.
